Source: publication PMC7036032

Target: T1, CstF77 (human), Q12996
T1 chain: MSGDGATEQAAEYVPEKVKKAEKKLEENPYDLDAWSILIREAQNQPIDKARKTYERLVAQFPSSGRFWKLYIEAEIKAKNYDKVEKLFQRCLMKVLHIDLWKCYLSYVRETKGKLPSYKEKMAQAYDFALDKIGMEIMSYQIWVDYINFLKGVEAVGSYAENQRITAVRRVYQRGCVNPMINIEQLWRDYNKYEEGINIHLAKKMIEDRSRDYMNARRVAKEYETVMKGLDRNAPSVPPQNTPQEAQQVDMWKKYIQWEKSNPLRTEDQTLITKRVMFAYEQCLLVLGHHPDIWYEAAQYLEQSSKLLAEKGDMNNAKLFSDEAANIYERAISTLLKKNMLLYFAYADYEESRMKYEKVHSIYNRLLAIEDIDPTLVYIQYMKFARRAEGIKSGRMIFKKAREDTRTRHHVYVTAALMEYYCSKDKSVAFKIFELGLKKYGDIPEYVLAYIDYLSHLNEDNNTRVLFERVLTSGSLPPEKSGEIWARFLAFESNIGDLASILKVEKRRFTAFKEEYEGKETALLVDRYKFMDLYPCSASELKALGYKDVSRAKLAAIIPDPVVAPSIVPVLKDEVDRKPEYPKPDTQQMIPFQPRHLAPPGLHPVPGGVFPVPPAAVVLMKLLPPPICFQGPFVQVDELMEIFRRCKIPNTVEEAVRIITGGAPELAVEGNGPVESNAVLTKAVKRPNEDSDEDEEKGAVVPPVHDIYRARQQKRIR
Assay: cryo-EM structure
Conditions: remark: other sources report otherwise

B1: CstF77, Q12996 1-717 (natural protein)
chain: MSGDGATEQAAEYVPEKVKKAEKKLEENPYDLDAWSILIREAQNQPIDKARKTYERLVAQFPSSGRFWKLYIEAEIKAKNYDKVEKLFQRCLMKVLHIDLWKCYLSYVRETKGKLPSYKEKMAQAYDFALDKIGMEIMSYQIWVDYINFLKGVEAVGSYAENQRITAVRRVYQRGCVNPMINIEQLWRDYNKYEEGINIHLAKKMIEDRSRDYMNARRVAKEYETVMKGLDRNAPSVPPQNTPQEAQQVDMWKKYIQWEKSNPLRTEDQTLITKRVMFAYEQCLLVLGHHPDIWYEAAQYLEQSSKLLAEKGDMNNAKLFSDEAANIYERAISTLLKKNMLLYFAYADYEESRMKYEKVHSIYNRLLAIEDIDPTLVYIQYMKFARRAEGIKSGRMIFKKAREDTRTRHHVYVTAALMEYYCSKDKSVAFKIFELGLKKYGDIPEYVLAYIDYLSHLNEDNNTRVLFERVLTSGSLPPEKSGEIWARFLAFESNIGDLASILKVEKRRFTAFKEEYEGKETALLVDRYKFMDLYPCSASELKALGYKDVSRAKLAAIIPDPVVAPSIVPVLKDEVDRKPEYPKPDTQQMIPFQPRHLAPPGLHPVPGGVFPVPPAAVVLMKLLPPPICFQGPFVQVDELMEIFRRCKIPNTVEEAVRIITGGAPELAVEGNGPVESNAVLTKAVKRPNEDSDEDEEKGAVVPPVHDIYRARQQKRIR
A stoichiometry N of 2 was found for B1 in this work.
